Measurements reported in publication PMC10866396 (Molecular cancer therapeutics, 2023).

Target: Avi-tagged-eIF4E (human, UniProt P06730 1-217, biotin (co-transfected bacterial biotin ligase BirA; loaded on streptavidin tips))
Assay: BLI

Chain of Avi-tagged-eIF4E (P06730 whole entry): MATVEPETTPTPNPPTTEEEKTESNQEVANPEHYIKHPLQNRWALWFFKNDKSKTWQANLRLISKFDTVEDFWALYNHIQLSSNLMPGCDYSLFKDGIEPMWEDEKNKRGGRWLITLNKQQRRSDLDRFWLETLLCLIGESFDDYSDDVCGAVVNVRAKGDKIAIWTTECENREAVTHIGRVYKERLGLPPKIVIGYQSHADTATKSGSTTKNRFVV

Kd: 25 µM
Binder: YPYAASPA [Pep8 peptide]
